Tests used:
Experiment in all cases: cell-based or functional assay
[1] = target: T1, HA of virus A/Johannesburg/33/94 (H3N2) (influenza A virus (H3N2))
[2] = target: T2, HA of virus A/Hiroshima/52/2005 (H3N2) (influenza A virus (H3N2))
[3] = target: T3, HA of virus A/Chick/Germany/N/49 (H10) (influenza A virus (H10))
[4] = target: T4, HA of virus A/Mallard/Netherlands/12/2000 (H7N3) (influenza A virus (H7N3))
[5] = target: T5, HA of virus A/Wisconsin/67/2005 (H3N2) (influenza A virus (H3N2))
[6] = target: T6, HA of virus A/Panama/2000/1999 (H3N2) (influenza A virus (H3N2))
[7] = target: T1, HA of virus A/Johannesburg/33/94 (H3N2); remark: listed apart in the source
[8] = target: T2, HA of virus A/Hiroshima/52/2005 (H3N2); remark: listed apart in the source
[9] = target: T3, HA of virus A/Chick/Germany/N/49 (H10); remark: listed apart in the source
[10] = target: HA of virus A/Brisbane/59/2007 (H1N1) (influenza A virus (H1N1))
[11] = target: HA of virus A/Solomon Islands/IVR-145 (H1N1) (influenza A virus (H1N1))
[12] = target: T4, HA of virus …; remark: listed apart in the source
[13] = target: T5, HA of virus A/Wisconsin/67/2005 (H3N2); remark: listed apart in the source
[14] = target: T6, HA of virus A/Panama/2000/1999 (H3N2); remark: listed apart in the source
[15] = target: HA of virus A/New Caledonia/20/1999 (H1N1) (influenza A virus (H1N1))

B1: CR8041 (antibody, V domains shown)
VH: QVQLVQSGAEVKKPGASVKVSCQASGYTFTSFGLSWVRQAPGQGPEWMGWISAYNGEIKYAQKFQGRVSMTTDTSTRTAYMEVRSLRPDDTAVYYCAREPPLYFSSWSLDF
VL: EIVLTQSPGTLSLSPGERATLSCRASQSVSSNYLAWFQQKPGQAPRLLIYGASRRATGIPDRFSGSGSGTDFTLTISRLEPEDFAVYYCQQYDSSPRT
SK50 titer [1]: 1.6 µg/mL | SK50 titer [2]: 3.5 µg/mL | SK50 titer [3]: 37.2 µg/mL | SK50 titer [4]: 38 µg/mL | SK50 titer [5]: 3.3 µg/mL | SK50 titer [6]: 5 µg/mL | Neutralization titer SK50 [7]: 1.69 µg/mL | Neutralization titer SK50 [8]: 4.75 µg/mL | Neutralization titer SK50 [9]: 25 µg/mL | Neutralization titer SK50 [10]: > 40 µg/mL | Neutralization titer SK50 [11]: > 40 µg/mL | Neutralization titer SK50 [12]: 1.1 µg/mL | Neutralization titer SK50 [13]: 3.99 µg/mL | Neutralization titer SK50 [14]: 2.99 µg/mL | Neutralization titer SK50 [15]: > 40 µg/mL

Source: patent publication US20130309248A1 (CRUCELL HOLLAND B V, published 2013)
